In the supplement of paper PMC10567573:
± gives the standard deviation.

Assay: protein stability index of a GFP-peptide fusion (GPS, HEK-293T) (PSI 1-6); higher = more stable
[1] = treatment: DMSO, c terminus: a fixed tail appended
[2] = treatment: MLN4924 1 uM, 8 h, c terminus: a fixed tail appended
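Further: 24-mer peptide tiles fused after GFP, lentivirally expressed, FACS-sorted into six equal bins by GFP/DsRed ratio, decoded by Illumina sequencing, PSI is the read-weighted mean bin number.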

| Sequence | protein stability index [1] | protein stability index [2] | protein stability index (treatment: DMSO, c terminus: native) | protein stability index (treatment: MLN4924 1 uM, 8 h, c terminus: native) |
| --- | --- | --- | --- | --- |
| LTHLSLSRRASESSLSSESSESSD [CDC25B] | 5.38 ± 0.24 | 5.4 ± 0.12 | – | – |
| AVQQVQRLPFLSSSNLSLDVLRGN [POMP] | 2.87 ± 0.24 | 2.98 ± 0.35 | – | – |
| LDSEIKKNSDGMEAAGVQIQMVNE [CD207] | 5.41 ± 0.59 | 5.22 ± 0.35 | – | – |
| EGPKRELGVRRPGGAGKEGVRVNN [TCF25] | 4.7 ± 0.12 | 5.04 ± 0.16 | – | – |
| AAQFTDFLIPMLEMVPEKRASAGE [SRPK2] | 3.6 ± 0.29 | 3.97 ± 0.29 | – | – |
| LFSNSDHQRDGTLGALHTSSKPTA [SASS6] | 4.36 ± 0.27 | 4.51 ± 0.065 | – | – |
| VGKSLTILGRTFFIYDCDPFTRRY [EFHC1] | 2.47 ± 0.54 | 2.7 ± 0.54 | – | – |
| RIFAQYMVPHNLETTERMKCLYYL [PDS5B] | 2.91 ± 0.62 | 2.36 ± 0.43 | – | – |
| TQEKKAESKEPIEEEPTGAGLNKD [SDE2] | 5.65 ± 0.12 | 5.41 ± 0.28 | – | – |
| ERLDELQDKSESLSDNATAFSNRS [VAMP4] | 5.44 ± 0.24 | 5.34 ± 0.088 | – | – |
| FLGETKQETLTNISAVNYDFDEEY [DAPK3] | 4.77 ± 0.35 | 4.84 ± 0.24 | – | – |
| GTSHGAPPARGPRMSYGGSTCHAY [RBMY1A1] | 3.79 ± 0.22 | 3.77 ± 0.21 | – | – |
| TRKINNSFLRDHSYATEADIISTV [PPP2R2B] | 3.32 ± 0.14 | 3.32 ± 0.12 | – | – |
| GAAVGTGSSYPTTTISYLPHAPPF [JUNB] | 3.1 ± 0.29 | 3.35 ± 0.36 | – | – |
| MSWRGRSTYYWPRPRRYVQPPEMI [GAGE1] | 2.64 ± 0.43 | 2.55 ± 0.24 | – | – |
| RKHIIEGLKASLERLQLEYVDVVF [KCNAB2] | 2.94 ± 0.58 | 3 ± 0.53 | – | – |
| FSNTSELAKDFIRRLLVKDPKRRM [DAPK3] | 2.36 ± 0.19 | 2.16 ± 0.44 | – | – |
| RWASAPPLYTLIDVLKYSYVRLVC [ZSWIM9] | 2.6 ± 0.45 | 3.01 ± 0.74 | – | – |
| TGESKEQVANSAFVERVRKRGFEV [HSP90AB1] | 4.18 ± 0.15 | 4.26 ± 0.12 | – | – |
| GVWAVIISHQQCWASTSPGTDLPL [TRIM15] | 2.75 ± 0.97 | 2.67 ± 0.18 | – | – |
| FISQVTVLKYFSHYMEENLMDGGD [PLK2] | 2.46 ± 0.69 | 2.3 ± 0.49 | – | – |
| EVLAQPQGALAPPNCESDSKTGV [DNAAF3] | – | – | 5.34 ± 0.27 | 5.3 ± 0.39 |
| CGDGNTETHRAPDLVQWTRHMEAV [SOAT2] | 3.55 ± 0.044 | 3.48 ± 0.31 | – | – |

| Sequence | protein stability index [1] | protein stability index [2] | protein stability index (treatment: DMSO, c terminus: native) | protein stability index (treatment: MLN4924 1 uM, 8 h, c terminus: native) |
| --- | --- | --- | --- | --- |
| GVQREAQRIALRLGNGNDKKEMNK [KMT2E] | 4.8 ± 0.26 | 4.78 ± 0.28 | – | – |
| FPNWAMALLITLIVVATLPIPVVF [SLC6A17] | 3.43 ± 0.88 | 3.04 ± 0.33 | – | – |
| VYCGAGVQKEHEEYMKNLLKVGGI [PCMTD2] | 2.75 ± 0.22 | 2.9 ± 0.28 | – | – |
| LRVWDMFFCEGVKIIFRVGLVLLK [TBC1D10A] | 2.6 ± 0.38 | 2.37 ± 0.29 | – | – |
| LRAFVNSQIQGHKEMSKVWNDLRP [SNX8] | 2.39 ± 0.21 | 2.62 ± 0.27 | – | – |
| PSSFPSSSSSSSSSCYPLIPSTPE [MAGEA10] | 4.32 ± 0.36 | 4.45 ± 0.13 | – | – |
| HNISHMSMDIARGLMVTCGTDRIV [WDFY1] | 2.26 ± 0.16 | 2.27 ± 0.15 | – | – |
| TEQLIEAVNNGDFEAYAKICDPGL [CAMK2B] | 4.19 ± 0.22 | 4.19 ± 0.23 | – | – |
| MYHPRELYPSLGAGYRLGPAQPGA [TBX6] | 2.78 ± 0.25 | 2.71 ± 0.11 | – | – |
| NRGINITIYGKTFRVVDCDQFTQV [EFHC1] | 2.24 ± 0.53 | 2.72 ± 0.51 | – | – |
| GKTPTVRAALICLTLVLVASVLLQ [CD207] | 3.17 ± 0.16 | 3.11 ± 0.76 | – | – |
| DYEAGTLSFYNVTDRSHIYTFTDT [TRIM39] | 2.58 ± 0.38 | 2.69 ± 0.28 | – | – |
| EAAAAEEGLRELQRSRRLCHEDVE [DAPK3] | 5.29 ± 0.23 | 5.4 ± 0.45 | – | – |
| LGDKGLSDTPYDSSASYEKENEMM [IKZF1] | 5.37 ± 0.14 | 5.26 ± 0.18 | – | – |
| YGQFTCEGCKSFFKRSVRRNLSYT [NR2F2] | 2.33 ± 0.12 | 2.33 ± 0.21 | – | – |
| MMNQSMMGMNMNIGMSAAGMGLTG [CLINT1] | 2.46 ± 0.39 | 2.53 ± 0.3 | – | – |
| EQEPIGTDLDAVRTPEPLEEFPKR [MYBL2] | 5.57 ± 0.2 | 5.18 ± 0.46 | – | – |
| QQVDTNISVILPTVHEVDIFRCFC [DENND6A] | 1.98 ± 0.31 | 2.24 ± 0.47 | – | – |
| IQASAGVISKKAKVKVPQKTAGKE [ZNF75A] | 4.6 ± 0.16 | 4.79 ± 0.27 | – | – |
| LMQVHASRSNNMGIVGGFTQMIRE [SLC25A25] | 2.75 ± 0.21 | 2.94 ± 0.24 | – | – |
| KALWEDKTSLWEEENALWEEERAF [CCDC70] | 3.79 ± 0.18 | 3.87 ± 0.14 | – | – |
| TQLKIENNPFAKGFRGSDDMELHR [TBX5] | 4.04 ± 0.25 | 4.02 ± 0.67 | – | – |
| KKIRQVIRKYNYVAMDTEFPGVVA [CNOT7] | 2.79 ± 0.35 | 2.24 ± 0.28 | – | – |

| Sequence | protein stability index [1] | protein stability index [2] | protein stability index (treatment: DMSO, c terminus: native) | protein stability index (treatment: MLN4924 1 uM, 8 h, c terminus: native) |
| --- | --- | --- | --- | --- |
| GLVTAALHMVIVAAFTWAFTLFFE [KMT2E] | 1.96 ± 0.3 | 1.83 ± 0.29 | – | – |
| RIPGAWSCAWSLNIQANNCFSTGL [DCAF4] | 2.76 ± 0.94 | 2.69 ± 0.6 | – | – |
| EFETLYNEHKSCEEKSVKNTSIRV [CLK3] | 4.59 ± 0.36 | 4.77 ± 0.23 | – | – |
| LLQLPDTKVGSFMIRESETKKGFY [SLA] | 2.75 ± 0.25 | 2.95 ± 0.047 | – | – |
| KESESEAKVDGETASDSESRAESA [CDS2] | 5.6 ± 0.17 | 5.34 ± 0.34 | – | – |
| TNEKALEAVFGKYGRIVEVLLMKD [RBMX] | 1.97 ± 0.46 | 2.15 ± 0.29 | – | – |
| ILDTAGQAEFTAMRDQYMRAGEGF [RIT1] | 3.44 ± 0.29 | 3.6 ± 0.23 | – | – |
| LTVQFVQGIFVEKYDPTIEDSYRK [RAP1B] | 2.17 ± 0.47 | 2.1 ± 0.57 | – | – |
| PLRERARKLSQGILIIRFEMPYNI [YJU2B] | 2.9 ± 0.7 | 2.62 ± 0.39 | – | – |
| QIEYEYKLAQALHEMREQHDAQVR [LMNB1] | 3.83 ± 0.38 | 3.83 ± 0.34 | – | – |
| LEYRFYEQLGSGDGIPQVYYFGPC [CSNK1G3] | 2.19 ± 0.29 | 2.13 ± 0.2 | – | – |
| SELSEHLRDPLTSLSHTELEAAEV [FCHSD1] | 5.22 ± 0.16 | 5.32 ± 0.13 | – | – |
| KYKRRRFQKTKNLLTGETEADPEM [CLPTM1] | 4.83 ± 0.28 | 4.57 ± 0.4 | – | – |
| KVLTEPEVRYYLRQIVSGLKYLHE [PLK2] | 3.19 ± 0.29 | 2.42 ± 0.33 | – | – |
| DLIDRGWRRSGKYVYKPVMNQTCC [ATE1] | 2.26 ± 0.14 | 2.23 ± 0.23 | – | – |
| ARDTVQVELIPEKKGLFLKHVEYE [SNX8] | 3.65 ± 0.39 | 3.73 ± 0.26 | – | – |
| KDWLEGTVRGATGIFPLSFVKILK [NCF4] | 2.49 ± 0.5 | 2.38 ± 0.52 | – | – |
| DKKTCTKIDYCASSNHGCQHECVN [MATN2] | 4.11 ± 0.22 | 4.23 ± 0.13 | – | – |
| PEGQKVLFVTFLLIYMVTIMGNLL [OR4A15] | 3.06 ± 0.36 | 3.24 ± 0.5 | – | – |
| RFNRIGLPPKVGSFQLFVEGYKDA [PI4K2A] | 2.39 ± 0.29 | 2.77 ± 0.51 | – | – |
| RSDGKTCAKLDSCALGDHGCEHSC [MATN2] | 4.54 ± 0.31 | 4.59 ± 0.32 | – | – |
| YGYAAQARARERERLAHSRAAAAA [KCNA4] | 3.9 ± 0.26 | 4.02 ± 0.097 | – | – |
| VWYVKKFGRYLEHLEVKFMNPYNA [FBXO39] | 2.66 ± 0.53 | 2.02 ± 0.45 | – | – |

| Sequence | protein stability index [1] | protein stability index [2] | protein stability index (treatment: DMSO, c terminus: native) | protein stability index (treatment: MLN4924 1 uM, 8 h, c terminus: native) |
| --- | --- | --- | --- | --- |
| SINVLLMMHGLKPLSLVKRTDLKD [CEP70] | 2.6 ± 0.6 | 2.59 ± 0.78 | – | – |
| LAWRIVNDTYRTDLCLLYPPFMIA [CCNC] | 2.86 ± 0.49 | 3.34 ± 0.71 | – | – |
| REPVTKAEMLGSVVGNWQYFFPVI [MAGEA3] | 2.17 ± 0.18 | 2.25 ± 0.27 | – | – |
| LPVGGRLPGPTRPVLGRRAVGGRL [HAGHL] | 3.983 ± 0.03 | 4.24 ± 0.64 | – | – |
| DYEKMFGTKCHGCDFKIDAGDRFL [PDLIM7] | 2.92 ± 0.31 | 2.96 ± 0.66 | – | – |
| HDFFLQGFTPDRLSSSCCHTVPDF [PLK2] | 2.71 ± 0.23 | 2.73 ± 0.24 | – | – |
| RRKQRYWPFSMDCTGTEAHISSCK [LOXL2] | 3.17 ± 0.49 | 3.52 ± 0.57 | – | – |
| LLRDPADASEAHESSSRGEAGAPG [CHGB] | 5.45 ± 0.28 | 5.34 ± 0.24 | – | – |
| SVCFIFTITIGMFPAVTVEVKSSI [SLC29A1] | 3.17 ± 0.55 | 3.46 ± 0.34 | – | – |
| LANNQCMATESVDHELGRCTDSVV [EHMT1] | 4.74 ± 0.093 | 4.71 ± 0.074 | – | – |
| LEVEREAEKKREAKQRAKEAQERE [LRRC59] | 5.45 ± 0.42 | 5.63 ± 0.19 | – | – |
| LLATRIAVYLMTFLIVTVAWAAHT [TMEM175] | 3.5 ± 0.17 | 3.12 ± 0.24 | – | – |
| CTLGDPNKLPEGVPQPARMPYISD [KLHL20] | 4.13 ± 0.24 | 4.18 ± 0.15 | – | – |
| WNVAAPLYLKQSDLASAAAKQIME [INTS4] | 2.67 ± 0.13 | 2.81 ± 0.05 | – | – |
| LVYVAAFSIGLGPMPWLVLSEIFP [SLC2A12] | 3.22 ± 0.44 | 3.19 ± 0.7 | – | – |
| KITDFQLHASTVKRYGLGAHRGRL [CPXM2] | 3.133 ± 0.018 | 3.22 ± 0.53 | – | – |
| KDMNFLKRYAGREEHWVGLKKEPG [CD69] | 3.61 ± 0.16 | 3.79 ± 0.21 | – | – |
| IRARELQNIYKCIMLKNISQDERL [IQUB] | 2.25 ± 0.57 | 2.15 ± 0.54 | – | – |
| NFSLATNTKYSVYIYVYFHTKLTS [R3HDM1] | 2.6 ± 0.41 | 2.36 ± 0.9 | – | – |
| VSERSFDNVRSLKVESGAWIGYEH [CRYBA1] | 2.91 ± 0.47 | 3.02 ± 0.33 | – | – |
